Residue numbers refer to the chain shown, from its start. Read-outs that look alike come from different tables or passages of the source.
B1: M13 phage pKK107 displaying MICA α3 domain with tight loop 1 insert T-3.1 (designed binder)
chain: TVPPMVNTSRGDHPRTQCRASGFYPWNITLSWRQDGVSLSHDTQQWGDVLPDGNGTYQTWVATRICQGEEQRFTCYMEHSGNHSTHPVPSGK
notes: also called 1-T-3.1; not shown: C-terminal portion of M13 gene III protein, fused at codon position 198
B2: M13 phage pKK111 displaying MICA α3 domain with tight loop 1 insert T-5.3 (designed binder)
chain: B1 chain with T8H, S9L, R10A, G11R, D12G, H13D, P14D, R15L, Q17Y
notes: also called 1-T-5.3; not shown: C-terminal portion of M13 gene III protein, fused at codon position 198
B3: M13 phage pKK110 displaying MICA α3 domain with tight loop 1 insert T-5.1 (designed binder)
chain: B1 chain with T8V, S9T, H13T, P14F, R15T, T16Q, Q17S
notes: also called 1-T-5.1; not shown: C-terminal portion of M13 gene III protein, fused at codon position 198
B4: M13 phage pKK108 displaying MICA α3 domain with tight loop 1 insert T-3.5 (designed binder)
chain: B1 chain with T8G, H13S, P14L, R15I, T16M, Q17H
notes: also called 1-T-3.5; not shown: C-terminal portion of M13 gene III protein, fused at codon position 198
B5: soluble MICA generated from pKK46 (loop 1 insert extended 5.1sp) (designed binder)
chain: HHHHHHEPHSLRYNLTVLSWDGSVQSGFLTEVHLDGQPFLRCDRQKCRAKPQGQWAEDVLGNKTWDRETRDLTGNGKDLRMTLAHIKDQKEGLHSLQEIRVCEIHEDNSTRSSQHFYYDGELFLSQNLETEEWTMPQSSRAQTLAMNVRNFLKEDAMKTKTHYHAMHADCLQELRRYLKSGVVLRRTVPPMVNVTSGGSGGGSVTRGDTFTQSSGGSGGGVTCRASGFYPWNITLSWRQDGVSLSHDTQQWGDVLPDGNGTYQTWVATRICQGEEQRFTCYMEHSGNHSTHPVPSGK
notes: From pKK34 (His6, Glu125); secreted by 293T cells; also called 1-5.1sp
B6: soluble MICA generated from pKK131 (loop 1 extended 5.1sp, loop 3 extended 5.1spNH) (designed binder)
chain: HHHHHHEPHSLRYNLTVLSWDGSVQSGFLTEVHLDGQPFLRCDRQKCRAKPQGQWAEDVLGNKTWDRETRDLTGNGKDLRMTLAHIKDQKEGLHSLQEIRVCEIHEDNSTRSSQHFYYDGELFLSQNLETEEWTMPQSSRAQTLAMNVRNFLKEDAMKTKTHYHAMHADCLQELRRYLKSGVVLRRTVPPMVNVTSGGSGGGSVTRGDTFTQSSGGSGGGVTCRASGFYPWNITLSWRQDGVSLSHDTQQWGDVLPDGNGTYQTWVATRISGGSGGGSVTRGDTFTQSSGGSGGGCYMEHSGNHSTHPVPSGK
B7: soluble MICA generated from pKK130 (loop 1 extended 5.1sp, loop 3 extended 5.3sp) (designed binder)
chain: B6 chain with V279H, T280L, R281A, G282R, D283G, T284D, F285D, T286L, Q287T, S288Y
notes: From pKK115 (from pKK46: His6, Glu125); secreted by 293T cells; also called 1-5.1sp/3-5.3sp
B8: soluble MICA generated from pKK128 (loop 1 extended 5.1sp, loop 3 extended 3.2sp) (designed binder)
chain: B6 chain with V279T, T280S, T284H, F285P, T286R, Q287T, S288Q
notes: From pKK115 (from pKK46: His6, Glu125); secreted by 293T cells; also called 1-5.1sp/3-3.2sp
B9: M13 phage pKK97 displaying MICA α3 domain with loop 1 insert 5.2 (designed binder)
chain: TVPPMVNVTRGDTFTQSVTCRASGFYPWNITLSWRQDGVSLSHDTQQWGDVLPDGNGTYQTWVATRICQGEEQRFTCYMEHSGNHSTHPVPSGK
notes: also called 1-5.2; not shown: C-terminal portion of M13 gene III protein, fused at codon position 198
B10: M13 phage pKK93 displaying MICA α3 domain with loop 1 insert 3.2 (designed binder)
chain: TVPPMVNVTRTSRGDHPRTQVTCRASGFYPWNITLSWRQDGVSLSHDTQQWGDVLPDGNGTYQTWVATRICQGEEQRFTCYMEHSGNHSTHPVPSGK
notes: also called 1-3.2; not shown: C-terminal portion of M13 gene III protein, fused at codon position 198

Key:
integrin αVβ3 [1] = target: T1, integrin αVβ3 (UniProt P06756 31-992; P05106 27-718); experiment: phage ELISA, coated integrin, anti-M13-HRP
T1 construct: Coated on the ELISA plate
Method: (§1) The phage vectors were independently transformed into NEBαF′tet competent E. coli cells. Phages produced by the transformed cells were tittered and their concentrations adjusted by dilution to 10¹³ per ml. The ability of the soluble MICA molecules in each of the phage preparations was assayed by an ELISA using the intended target proteins, integrin αVβ3 or αVβ5, as capture agents on the ELISA plate. After the respective integrins were adhered to the bottoms of the wells of the ELISA plate, the wells were washed and blocked, as well known in the field. Each sample (100 μl) of phage preparation was added to wells containing αVβ3 or αVβ5, incubated and washed. The phages captured by the integrins were detected by HRP-conjugated antibody to the M13 phage coat developed with Ultra TMB-ELISA substrate and the optical densities read.

integrin αVβ5 [2] = target: T2, integrin αVβ5 (UniProt P06756 31-992; P18084 24-719); experiment: phage ELISA, coated integrin, anti-M13-HRP
T2 construct: Coated on the ELISA plate
Method: as §1

integrin αVβ3 [3] = target: T1, integrin αVβ3; experiment: ELISA, coated integrin, anti-MICA-HRP
Method: (§2) ELISA assays of the integrin target-binding of soluble MICA molecules generated from pKK128-131 were performed as follows. After the respective integrins were adhered to the bottoms of the wells of the ELISA plate, the wells were washed and blocked. Each sample (100 μl) of culture supernatant was added to wells containing αVβ3 or αVβ5, incubated and washed. The soluble MICA molecules captured by the integrins were detected by HRP-conjugated antibody to human MICA developed with Ultra TMB-ELISA substrate and the optical densities read. The quantity of soluble MICA in each sample was determined by the MICA-specific ELISA.

integrin αVβ5 [4] = target: T2, integrin αVβ5; experiment: ELISA, coated integrin, anti-MICA-HRP
Method: as §2

integrin αVβ3 [5] = target: T1, integrin αVβ3; experiment: ELISA, coated integrin, anti-MICA-HRP; remark: listed apart in the source
Method: (§3) The ability of the soluble MICA molecules in each of the concentrated supernatants to bind target molecules was assayed by an ELISA using the intended target proteins, integrin αVβ3 or αVβ5, as capture agents on the ELISA plate. After the respective integrins were adhered to the bottoms of the wells of the ELISA plate, the wells were washed and blocked, as well known in the field. Each sample (100 μl) of soluble MICA produced and secreted by 293T cells was added to wells containing αVβ3 or αVβ5, incubated and washed. The soluble MICA molecules captured by the integrins were detected by HRP-conjugated antibody to human MICA developed with Ultra TMB-ELISA substrate and the optical densities read. The quantity of soluble MICA in each sample was determined by the MICA-specific ELISA. […] The ELISA signal from a non-binding, negative control MICA (generated by pSW273) was subtracted from each integrin binding signal.

integrin αVβ5 [6] = target: T2, integrin αVβ5; experiment: ELISA, coated integrin, anti-MICA-HRP; remark: listed apart in the source
Method: as §3

the targeted integrin = experiment: cell-based or functional assay
integrin αVβ3 [7] = target: T1, integrin αVβ3; experiment: phage ELISA, coated integrin, anti-M13-HRP; remark: listed apart in the source
Method: (§4) The ELISA assays of the integrin target-binding of M13 phages displaying α3 domains with binding peptide inserts grafted into more than one loop were performed as follows. After the respective integrins were adhered to the bottoms of the wells of the ELISA plate, the wells were washed and blocked. Each sample (100 μl) of phage preparation was added to wells containing αVβ3 or αVβ5, incubated and washed. The phages captured by the integrins were detected by HRP-conjugated antibody to the M13 phage coat developed with Ultra TMB-ELISA substrate and the optical densities read.

integrin αVβ5 [8] = target: T2, integrin αVβ5; experiment: phage ELISA, coated integrin, anti-M13-HRP; remark: listed apart in the source
Method: as §4

T1 sequence (P06756 31-992, chain 1 of 2): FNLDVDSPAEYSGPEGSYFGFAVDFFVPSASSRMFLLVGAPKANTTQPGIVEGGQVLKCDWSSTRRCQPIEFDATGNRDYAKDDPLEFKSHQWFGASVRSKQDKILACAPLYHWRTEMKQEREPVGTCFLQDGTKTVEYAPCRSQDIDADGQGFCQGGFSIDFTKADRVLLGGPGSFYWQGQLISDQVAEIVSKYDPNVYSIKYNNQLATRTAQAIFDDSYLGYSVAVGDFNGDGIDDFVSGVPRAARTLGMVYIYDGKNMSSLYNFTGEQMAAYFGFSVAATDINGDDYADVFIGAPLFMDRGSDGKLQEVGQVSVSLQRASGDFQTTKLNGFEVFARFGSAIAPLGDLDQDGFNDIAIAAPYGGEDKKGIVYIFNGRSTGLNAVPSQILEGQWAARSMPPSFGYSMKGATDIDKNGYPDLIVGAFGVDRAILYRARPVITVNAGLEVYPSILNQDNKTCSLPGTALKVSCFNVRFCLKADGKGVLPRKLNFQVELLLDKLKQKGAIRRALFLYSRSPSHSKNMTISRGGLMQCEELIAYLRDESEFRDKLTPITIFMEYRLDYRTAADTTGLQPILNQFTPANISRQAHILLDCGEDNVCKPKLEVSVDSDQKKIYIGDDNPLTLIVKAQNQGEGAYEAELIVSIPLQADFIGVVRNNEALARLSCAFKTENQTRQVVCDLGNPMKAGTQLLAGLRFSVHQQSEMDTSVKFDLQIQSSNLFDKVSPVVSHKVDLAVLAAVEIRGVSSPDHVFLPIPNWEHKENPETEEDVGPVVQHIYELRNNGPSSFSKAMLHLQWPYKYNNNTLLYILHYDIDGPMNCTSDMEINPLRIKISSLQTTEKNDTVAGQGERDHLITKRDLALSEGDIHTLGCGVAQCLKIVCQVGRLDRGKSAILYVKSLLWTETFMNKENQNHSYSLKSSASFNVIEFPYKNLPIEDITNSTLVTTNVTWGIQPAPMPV
T1 sequence (P05106 27-718, chain 2 of 2): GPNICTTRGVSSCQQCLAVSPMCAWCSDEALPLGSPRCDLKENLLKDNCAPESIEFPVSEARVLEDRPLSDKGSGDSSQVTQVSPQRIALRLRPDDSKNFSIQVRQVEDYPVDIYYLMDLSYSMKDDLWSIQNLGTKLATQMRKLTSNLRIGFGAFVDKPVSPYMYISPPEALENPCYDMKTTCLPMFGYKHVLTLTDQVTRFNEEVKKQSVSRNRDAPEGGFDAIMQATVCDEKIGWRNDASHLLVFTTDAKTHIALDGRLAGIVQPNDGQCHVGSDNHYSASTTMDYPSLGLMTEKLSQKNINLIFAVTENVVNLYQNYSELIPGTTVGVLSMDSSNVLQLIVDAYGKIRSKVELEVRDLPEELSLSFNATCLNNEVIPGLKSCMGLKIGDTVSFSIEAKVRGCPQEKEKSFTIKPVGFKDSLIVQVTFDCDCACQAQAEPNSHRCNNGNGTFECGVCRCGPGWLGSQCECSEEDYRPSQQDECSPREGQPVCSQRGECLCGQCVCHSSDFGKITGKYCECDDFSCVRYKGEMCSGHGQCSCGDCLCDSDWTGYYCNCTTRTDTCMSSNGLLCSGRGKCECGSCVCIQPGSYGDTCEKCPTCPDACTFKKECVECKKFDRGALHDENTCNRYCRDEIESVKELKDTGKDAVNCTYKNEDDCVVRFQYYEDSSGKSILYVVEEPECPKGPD
T2 sequence (P06756 31-992, chain 1 of 2): as the sequence (P06756 31-992, chain 1 of 2) above
T2 sequence (P18084 24-719, chain 2 of 2): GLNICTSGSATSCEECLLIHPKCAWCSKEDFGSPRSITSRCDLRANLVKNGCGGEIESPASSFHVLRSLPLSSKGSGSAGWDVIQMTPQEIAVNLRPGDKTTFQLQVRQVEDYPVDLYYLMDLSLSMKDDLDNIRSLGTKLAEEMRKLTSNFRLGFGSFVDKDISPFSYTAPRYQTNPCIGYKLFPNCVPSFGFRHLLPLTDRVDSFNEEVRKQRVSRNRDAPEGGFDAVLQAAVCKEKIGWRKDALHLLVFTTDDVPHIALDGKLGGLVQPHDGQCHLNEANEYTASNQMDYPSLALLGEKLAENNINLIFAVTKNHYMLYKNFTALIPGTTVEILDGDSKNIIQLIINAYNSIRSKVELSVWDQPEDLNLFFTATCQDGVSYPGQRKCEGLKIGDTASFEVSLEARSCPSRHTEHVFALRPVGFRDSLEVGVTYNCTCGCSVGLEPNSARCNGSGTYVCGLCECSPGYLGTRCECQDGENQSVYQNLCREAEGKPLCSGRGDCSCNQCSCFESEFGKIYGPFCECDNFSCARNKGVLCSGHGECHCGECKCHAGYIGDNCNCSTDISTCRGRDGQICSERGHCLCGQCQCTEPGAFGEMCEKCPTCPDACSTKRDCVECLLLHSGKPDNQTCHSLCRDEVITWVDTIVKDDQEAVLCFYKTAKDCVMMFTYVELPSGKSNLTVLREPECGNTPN

Binder	αvβ3 signal (integrin αVβ3 [1])	αvβ5 signal (integrin αVβ5 [2])	αvβ3 signal (integrin αVβ3 [3])	αvβ3 signal/ng (integrin αVβ3 [3])	αvβ5 signal (integrin αVβ5 [4])	αvβ5 signal/ng (integrin αVβ5 [4])	also measured
B1	0.999 OD	1.49 OD					
B2	0.707 OD	0.657 OD					
B3	1.49 OD	2.56 OD					
B4	-0.09 OD	-0.204 OD					
B5			0.467 OD	9.42 signal/ng MICA	0.66 OD	13.3 signal/ng MICA	αvβ3 signal (integrin αVβ3 [5]): 0.384 OD; αvβ3 signal/ng (integrin αVβ3 [5]): 9.2 signal/ng MICA; αvβ5 signal (integrin αVβ5 [6]): 1.06 OD; αvβ5 signal/ng (integrin αVβ5 [6]): 25.5 signal/ng MICA
B6							green fluorescent signal from live MCF cells; 64 pg targeted MICA, NK 5:1 (the targeted integrin): 5180 fluorescence; green fluorescent signal from live MCF cells; 64 pg targeted MICA, NK 10:1 (the targeted integrin): 3700 fluorescence; green fluorescent signal from live MCF cells; 64 pg targeted MICA, no NK cells (the targeted integrin): 5030 fluorescence; green fluorescent signal from live MCF cells; 128 pg targeted MICA, NK 5:1 (the targeted integrin): 3460 fluorescence; green fluorescent signal from live MCF cells; 128 pg targeted MICA, NK 10:1 (the targeted integrin): 2190 fluorescence; red fluorescent signal from (dead) MCF cells; 64 pg targeted MICA, NK 5:1 (the targeted integrin): 27 fluorescence; red fluorescent signal from (dead) MCF cells; 64 pg targeted MICA, NK 10:1 (the targeted integrin): 31 fluorescence; red fluorescent signal from (dead) MCF cells; 64 pg targeted MICA, no NK cells (the targeted integrin): 19.9 fluorescence; red fluorescent signal from (dead) MCF cells; 128 pg targeted MICA, NK 5:1 (the targeted integrin): 25.6 fluorescence; red fluorescent signal from (dead) MCF cells; 128 pg targeted MICA, NK 10:1 (the targeted integrin): 41 fluorescence
B7			0.606 OD	19.6 signal/ng MICA	0.832 OD	26.9 signal/ng MICA	
B8			0.811 OD	22.9 signal/ng MICA	1 OD	28.3 signal/ng MICA	
B9	1.55 OD	2.59 OD					
B10	0.284 OD	0.291 OD					αvβ3 signal (integrin αVβ3 [7]): 0.616 OD; αvβ5 signal (integrin αVβ5 [8]): 0.774 OD

Source: US20150165065A1 (AVIDBIOTICS, published 2015)
